# The Immune Epitope Database (IEDB)
# Key:
# [1] = target: HLA-B*35:01; assay: IEDB peptide-MHC binding, purified MHC/competitive/radioactivity; filed as Kd, often an IC50 or EC50 that approximates it; ≥ and ≤ were set here for values at or beyond the usual limits of such assays
# [2] = target: HLA-B*53:01; assay: as above
# [3] = target: HLA-A*01:01; assay: as above
# [4] = target: HLA-A*02:01; assay: IEDB peptide-MHC binding, purified MHC/competitive/fluorescence; ≥ and ≤ were set here for values at or beyond the usual limits of such assays
# [5] = target: HLA-A*32:01; assay: IEDB peptide-MHC binding, purified MHC/competitive/radioactivity; filed as Kd, often an IC50 or EC50 that approximates it; ≥ and ≤ were set here for values at or beyond the usual limits of such assays
# [6] = target: HLA-A*24:02; assay: as above; conditions: source organism: Homo sapiens
# [7] = target: HLA-B*40:01; assay: as above
# [8] = target: HLA-B*44:02; assay: as above
# [9] = target: HLA-A*31:01; assay: IEDB peptide-MHC binding, purified MHC/direct/fluorescence; filed as Kd, often an IC50 or EC50 that approximates it; ≥ and ≤ were set here for values at or beyond the usual limits of such assays; conditions: source organism: Escherichia coli
# [10] = target: HLA-A*03:01; assay: as above; conditions: source organism: Escherichia coli
# [11] = target: HLA-A*26:01; assay: IEDB peptide-MHC binding, purified MHC/competitive/radioactivity; filed as Kd, often an IC50 or EC50 that approximates it; ≥ and ≤ were set here for values at or beyond the usual limits of such assays
# [12] = target: HLA-A*30:02; assay: as above
# [13] = target: HLA-A*01:01; assay: IEDB peptide-MHC binding, purified MHC/direct/fluorescence; filed as Kd, often an IC50 or EC50 that approximates it; ≥ and ≤ were set here for values at or beyond the usual limits of such assays; conditions: source organism: Human immunodeficiency virus 1
# [14] = target: HLA-B*58:01; assay: as above
# [15] = target: HLA-B*15:01; assay: as above; conditions: source organism: Human immunodeficiency virus 1
# [16] = target: HLA-B*40:01; assay: as above
# [17] = target: HLA-B*44:03; assay: IEDB peptide-MHC binding, purified MHC/competitive/radioactivity; filed as Kd, often an IC50 or EC50 that approximates it; ≥ and ≤ were set here for values at or beyond the usual limits of such assays
# [18] = target: HLA-A*11:01; assay: IEDB peptide-MHC binding, purified MHC/direct/fluorescence; filed as Kd, often an IC50 or EC50 that approximates it; ≥ and ≤ were set here for values at or beyond the usual limits of such assays
# [19] = target: HLA-A*69:01; assay: as above
# [20] = target: HLA-B*07:02; assay: as above; conditions: source organism: Human herpesvirus 4 strain B95-8
# [21] = target: HLA-A*02:06; assay: IEDB peptide-MHC binding, purified MHC/competitive/radioactivity; filed as Kd, often an IC50 or EC50 that approximates it; ≥ and ≤ were set here for values at or beyond the usual limits of such assays
# [22] = target: HLA-A*02:02; assay: as above
# [23] = target: HLA-A*02:03; assay: as above
# [24] = source organism: Dengue virus 1 Brazil/97-11/1997
# [25] = source organism: Sudan ebolavirus
# [26] = source organism: Vaccinia virus WR
# [27] = source organism: Dengue virus 1 Singapore/S275/1990
# [28] = source organism: Zaire ebolavirus
# [29] = source organism: Dengue virus 3 Martinique/1243/1999
# [30] = source organism: Dengue virus 2 Jamaica/1409/1983
# [31] = source organism: Mammarenavirus juninense
# [32] = source organism: Dengue virus 4 Philippines/H241/1956
# [33] = source organism: SARS coronavirus Tor2
sequence,measurement,setting,value
LPEIEDEVF,Kd,[1]; [24],88.1 nM
same,Kd,[2]; [24],1240 nM
LTDYGALTL,Kd,[3]; [24],201 nM
LVCGLRQLA,IC50,[4]; [25],7660 nM
LVQYIKFIF,Kd,[5]; [26],19.8 nM
LYSACFWWL,Kd,[6],28 nM
MAMVLSIVS,Kd,[1]; [27],659 nM
MESEGIFSP,Kd,[7]; [27],2270 nM
MEVDRSEAK,Kd,[8]; [24],7940 nM
MHNQDGLIC,IC50,[4]; [28],2340 nM
MHNQNALVC,IC50,[4]; [25],≥ 92000 nM
MLVTPSMTM,Kd,[1]; [29],3840 nM
MLYGIAQKI,Kd,[5]; source organism: Vaccinia virus Copenhagen,12.4 nM
MNEENRFVT,IC50,[4]; [28],41100 nM
MPKPSLFVR,Kd,[9],204 nM
same,Kd,[10],≥ 20000 nM
MSYSMCTGKF,Kd,[11]; [30],79.4 nM
same,Kd,[12]; [30],1100 nM
same,Kd,[3]; [30],18000 nM
NSSKVSQNY,Kd,[13],41.2 nM
same,Kd,[14]; source organism: Human immunodeficiency virus 1,742 nM
same,Kd,[15],301 nM
NYADRRWCFD,Kd,[5]; [30],≥ 52300 nM
QEHDCLQIV,Kd,[16]; [31],1470 nM
QERGKSLLF,Kd,[17]; [24],117 nM
QLVCKDHLA,IC50,[4]; [25],19600 nM
RNPAQEDDQY,Kd,[12]; [32],15900 nM
RNPKNENDQY,Kd,[12]; [30],20.7 nM
RTIYNETSI,Kd,[5]; [26],1.03 nM
RTMFLFVFR,Kd,[18]; source organism: Mycobacterium tuberculosis,94.6 nM
RWGLLLALL,Kd,[6],4.5 nM
SALNHTKKW,Kd,[18]; source organism: SARS-CoV1,17100 nM
same,Kd,[14]; source organism: SARS-CoV1,350 nM
SAVPTEWFPT,Kd,[5]; [32],≥ 34000 nM
SEAVNDSRFW,Kd,[8]; [32],11.4 nM
same,Kd,[17]; [32],41.4 nM
SEIQLTDYG,Kd,[17]; [24],441 nM
SEKNETWKL,Kd,[8]; [24],153 nM
same,Kd,[7]; [24],113 nM
SQSTIPETI,Kd,[5]; [30],≥ 24100 nM
STEGRRVGV,IC50,[4]; [25],≥ 210000 nM
STTRGALIF,Kd,[5]; [26],296 nM
SVVETLEQM,Kd,[11]; [24],138 nM
TLARGFPFV,Kd,[19]; source organism: West Nile virus,≤ 1 nM
TLEDDRERL,IC50,[4]; source organism: Variola virus,29900 nM
TPEGIIPSM,Kd,[1]; [30],7.57 nM
same,Kd,[2]; [30],252 nM
TTERGGKAY,Kd,[3]; [32],917 nM
TTHTSGPSV,IC50,[4]; [25],17800 nM
TTTGEIGAI,Kd,[11]; [29],5260 nM
VESWEEIPYL,Kd,[7]; source organism: Dengue virus 2 Peru/IQT2913/1996,52.8 nM
VETPIRNEW,Kd,[16]; source organism: Influenza A virus (A/Moscow/346/2003(H3N2)),≥ 20000 nM
VHQIFGSAY,Kd,[12]; [29],9950 nM
VMCSISLTY,Kd,[5]; [26],10.8 nM
VPAPAGPIV,Kd,[20],23.4 nM
same,Kd,[19]; source organism: Human herpesvirus 4 strain B95-8,442 nM
VPLLAIGCY,Kd,[1]; [30],168 nM
VRLHPLART,IC50,[4]; [28],≥ 331000 nM
VTLNISSKF,Kd,[5]; [26],10.6 nM
VTNVIIIVI,Kd,[5]; [26],13.7 nM
VTYLALIATF,Kd,[11]; [29],≥ 21200 nM
same,Kd,[3]; [29],≥ 50800 nM
YCNYTKFWYV,Kd,[21]; [31],6.54 nM
same,Kd,[22]; [31],322 nM
same,Kd,[23]; [31],101 nM
YIMYNILPI,Kd,[5]; [26],39.4 nM
YLFSQNYSF,Kd,[5]; [26],1.39 nM
YLLGLSAIM,Kd,[21]; [33],3.22 nM
same,Kd,[22]; [33],1.69 nM
same,Kd,[23]; [33],37.1 nM
YLSKEDRII,Kd,[21]; [26],10500 nM
same,Kd,[22]; [26],305 nM
same,Kd,[23]; [26],435 nM
YQSFLFWFL,Kd,[21]; [26],40.1 nM
same,Kd,[22]; [26],0.381 nM
same,Kd,[23]; [26],2.5 nM
YVILTILTII,Kd,[21]; [32],2.38 nM
same,Kd,[2]; [32],5330 nM
